In paper PMC3158823:

Target: Neu/V664E TM domain peptide (rat)
Assay: SDS-PAGE mobility

stoichiometry N: 2
Substance: Neu/V664E TM domain peptide
